{
  "source": "paper PMC6085627",
  "biological_target": "Human TLR4/MD-2 complex (human) (UniProt O00206)",
  "sequence (O00206 24-631, chain 1 of 2)": "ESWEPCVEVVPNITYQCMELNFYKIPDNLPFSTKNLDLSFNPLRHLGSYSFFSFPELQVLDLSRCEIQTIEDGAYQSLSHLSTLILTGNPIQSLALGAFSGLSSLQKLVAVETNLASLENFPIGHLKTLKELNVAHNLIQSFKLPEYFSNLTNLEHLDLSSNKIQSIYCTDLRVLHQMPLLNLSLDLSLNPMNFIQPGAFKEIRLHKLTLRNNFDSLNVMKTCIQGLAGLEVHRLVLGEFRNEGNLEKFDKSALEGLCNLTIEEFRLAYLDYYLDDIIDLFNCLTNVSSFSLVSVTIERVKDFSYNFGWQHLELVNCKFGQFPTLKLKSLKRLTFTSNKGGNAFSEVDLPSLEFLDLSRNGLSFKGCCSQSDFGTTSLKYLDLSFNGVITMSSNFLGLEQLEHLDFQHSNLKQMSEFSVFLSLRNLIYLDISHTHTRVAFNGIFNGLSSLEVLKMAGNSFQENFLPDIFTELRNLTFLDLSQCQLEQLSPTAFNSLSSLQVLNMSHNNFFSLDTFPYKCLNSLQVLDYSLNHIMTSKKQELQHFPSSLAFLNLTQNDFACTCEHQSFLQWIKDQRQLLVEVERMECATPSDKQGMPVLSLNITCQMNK",
  "sequence (Q9Y6Y9 19-160, chain 2 of 2, further chain)": "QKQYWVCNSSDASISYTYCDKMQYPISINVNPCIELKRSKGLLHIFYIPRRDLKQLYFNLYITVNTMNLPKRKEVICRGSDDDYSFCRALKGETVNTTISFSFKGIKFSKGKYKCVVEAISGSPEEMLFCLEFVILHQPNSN",
  "test": "SPR; Biacore T200; TLR4/MD-2 amine-coupled on CM5 (1100 RU); GST-A-box, GST-B-box (150-5000 nM), A-box or GST injected at 30 μL/min for 60 s, 25 °C, dissociation 1 min; HBS-EP pH 7.4; GST-A-box: association and dissociation fitted separately to a 1:1 model; GST-B-box: steady-state affinity model; apparent KD",
  "data": [
    {"substance": "Recombinant GST-B-box (domain or fragment)", "values": [
      {"measurement": "Kd", "value": 5.78, "unit": "µM"}
    ]}
  ]
}
